We go through 30 sequences from the nanobody polyreactivity screen of Harvey et al. (2022).

This series in a line: yeast display, Sf9 membrane polyspecificity reagent, FACS + sequencing; frameworks hold sequencing errors. The essentials:
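Polyreactivity labels are assigned by the sorting gate from which each nanobody was recovered. The gates were low and high (top ~1%), set on anti-HA fluorescence for expression and streptavidin fluorescence for reagent binding. Before sorting, galactose-induced (36–48 hours) yeast display cells were stained for 1 hour at 4 °C with 10% biotinylated, detergent-solubilized Sf9 membrane reagent.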
As to “QVQLVESGGGLVQAGGSLRISCAASGIIFAANTMGWYRQAPGKERELVAAITSGGSTKYADSVKGRFTISRDNAKNTVYLQMNSLKPEDTAVYYCAAQYRYQRYSYAMEYWGQGTQVTVSS”, the “polyreactivity (PSR sort gate)” value is “high polyreactivity”.

Turning to “QVQLVESGGGLVQAGGSLRISCAASGIIFDTNAMGWYRQAPGKERELVATITQRGGTTYYADSVKGRFTISRDNAKNTVYLQMNSLKPEDTAVYYCAKDYWFGYEYWGQGTQVTVSS”, the “polyreactivity (PSR sort gate)” value is “low polyreactivity”.

On to “QVQLVESGGGLVQAGGSLRISCAASGITFNVNAMGWSRQAPGKERELVARITTSGGSTSYADSVKGRFTISRDNAKNTVYLQMNSLKPEDTAVYYCAADRARYYSEYDYWGQGTQVTVSS”, for which the “polyreactivity (PSR sort gate)” value was “low polyreactivity”.

Consider “QVQLVESGGGLVQAGGSLRISCAASGITFSYYAMGWYTPAPGKERELVAAINSGGGSTYYADSVKGRFTISRDNAKNTVYLQMNSLKPEDTAVYYCSARYRSRYDYYYDRDYWGQGTQVTVSS”, for which the “polyreactivity (PSR sort gate)” value is “low polyreactivity”.

As for “QVQLVESGGGLVQAGGSLRISCAASGITFYGYAMGWYRQAPGKERELVATISKSGGITSYADSVKGRFSISRDNAKNTVYLQMNSLKPEETAVYYCNRGKSYGGYDYWGQGTQVTVSS”, the “polyreactivity (PSR sort gate)” value was “low polyreactivity”.

Turning to “QVQLVESGGGLVQAGGSLRISCAASGLIFGRYAMGWYRQAPGKERELVAAISSSGVRTYYADSVKGRFTISRDNAKNTVYLQMNSLKPEDTAVYYCAAAYWSSREDTVIKRYYWGQGTQVTVSS”, the “polyreactivity (PSR sort gate)” value was “high polyreactivity”.

In the case of “QVQLVESGGGLVQAGGSLRISCAASGLIFYSYAMGWYRQAPGKERELVAAISSGTRTYYADSVKGRFTISRDNAKNTVYLQMNSLKPEDTAVYYCAAVDAHKKRYPPSGRLYGYWGQGTQVTVSS”, the “polyreactivity (PSR sort gate)” value is “high polyreactivity”.

As for “QVQLVESGGGLVQAGGSLRISCAASGLIIAYAMGWYRPAPGKERELVAASSGRDGSTYYADSVKGRFTISRDNAKNTVYLHMNSLKPEATAVYYCAKRISYLPVEMDYWGQGTQLTVSS”, the “polyreactivity (PSR sort gate)” value was “low polyreactivity”.

Consider “QVQLVESGGGLVQAGGSLRISCAASGLTILFYAMAWYRQAPGKERELVASIRWSDGRTYYADSVKGRFTISRDNAKNTVYLQMNSLKPEDTAVYYCAARSYLTPEYYYWGQGTQVTVSS”, for which the “polyreactivity (PSR sort gate)” value was “high polyreactivity”.

As for “QVQLVESGGGLVQAGGSLRISCAASGLTSPIYAMGWYRQAPGKERELDAAISKNGGSTYYADSVKGRFTISRDNAKNTVYVQMNSLKPEDTAVYYCNAVVYHYTLDHEYDYWGQGTQVTVSS”, the “polyreactivity (PSR sort gate)” value is on record as “high polyreactivity”.

For the sequence “QVQLVESGGGLVQAGGSLRISCAASGLYAMGWYRQAPGKERELVADINSSGGSITNYADSVKGRFTISRDNAKNTVYLQMNSLKPEDTAVYYCNPDVPGDTGWWGFDYWGQGTQVTVSS”, the “polyreactivity (PSR sort gate)” value is “low polyreactivity”.

For “QVQLVESGGGLVQAGGSLRISCAASGNTFWKYAMGWYRQAPGKERELVAAISKSGGSTYYADSVKGRFTISRDNAKNTVYLQMNSLKPEDTAVYYCAAVNYRWYSRNYDHYYWGQGTQVTVSS”, the “polyreactivity (PSR sort gate)” value is on record as “high polyreactivity”.

As for “QVQLVESGGGLVQAGGSLRISCAASGRIFGANAMGWYRQAPAKERELVAAITSSGGNTYYADSVKGRFTISRDNAKNTVYLQMNCLKPEDTAVYYWSARSRWVSYNYWGQGTQVTVSS”, the “polyreactivity (PSR sort gate)” value was “high polyreactivity”.

“QVQLVESGGGLVQAGGSLRISCAASGRIFIWYDMGWYRQAPGKERELVAAITQSDDITYYADSVKGRFTISRDNAKNTVYLQMNSLKPEDTAVYYCAARVLETSTPYGYWGQGTQVTVSS”: the “polyreactivity (PSR sort gate)” value is listed as “low polyreactivity”.

For the sequence “QVQLVESGGGLVQAGGSLRISCAASGRIFSEYAMGWYRQAPGKERELVATITWTGGSTTYADSVKGRFTISRDNAKNTVYLQINSLKPEDTAVYYCAADATRLRTRYKRDYWGQGTQVTVSS”, the “polyreactivity (PSR sort gate)” value is on record as “high polyreactivity”.

On to “QVQLVESGGGLVQAGGSLRISCAASGRIFWANVMGWYRQAPGKERELVAAITGGGRTYYADSVKGRFTISRDNAKNTVYLQMNSLKPEDTAVYYCNAELNWYYYIHLDYWGQGTQVTVSS”, for which the “polyreactivity (PSR sort gate)” value was “low polyreactivity”.

Consider “QVQLVESGGGLVQAGGSLRISCAASGRIFYVYAMGWYRQAPGKERELVAAITSGGSTYYADSVKGRFTISRDNAKNTVYLQMNSLKPEDTAVYYCAAYNRGRFRPYRFEYWGQGTQVTVSS”, for which the “polyreactivity (PSR sort gate)” value is listed as “high polyreactivity”.

“QVQLVESGGGLVQAGGSLRISCAASGRILLRNVMGWYRQAPGKERELVAVITRTGITYYAYSVKGRFTISRDNAKNTVYLQMNSLKPEDTAVYYCAAGLPKYEHDYWGQGTQVTVSS”: the “polyreactivity (PSR sort gate)” value is reported as “low polyreactivity”.

For the sequence “QVQLVESGGGLVQAGGSLRISCAASGRTFDPYAMGWYRQAPGKERELVASISRGGSTYADSVKGRFTISRDNAKNTVYLQMNSLKPEDTAVYYCNTSLYTEGDAMDYWGQGTQVTVSS”, the “polyreactivity (PSR sort gate)” value is reported as “low polyreactivity”.

Consider “QVQLVESGGGLVQAGGSLRISCAASGRTFPGNAMGWYRQAPGKERELVAAISWSGTRTYYADSVKGRFTISRDNAKNTVYLQMNSLKPEDTAVYYCNVVVKGAWDYYPYDYWGQGTQVTVSS”, for which the “polyreactivity (PSR sort gate)” value is listed as “high polyreactivity”.

Consider “QVQLVESGGGLVQAGGSLRISCAASGRTFSGNAMGWYRQAPGKERELVAAISSGGSTNYADSVKGRFTISRDNAKNTVYLQMNSLKPEDTAVYFCARDAYLPRIADGDGRYELVDYWGHGTQVTVSS”, for which the “polyreactivity (PSR sort gate)” value is reported as “low polyreactivity”.

With “QVQLVESGGGLVQAGGSLRISCAASGRTFTRYAMGWYRQAPGKERELVASITTGGRTYYADSVKGRFTISRDNAKNTVYLQMNSLKPEDTAVYYCNADRVYAWYRTYDYWGQGTQVTVSS”, the “polyreactivity (PSR sort gate)” value was “high polyreactivity”.

As to “QVQLVESGGGLVQAGGSLRISCAASGRTFYGNAMGWYRQAPGKEREFFAAISASGGSTYYADSVKGRFTISRDNAKNTVYLQLNSLKPEDTSVYYCATDLGAFSVPYSPYDYWGLGTQVTVSS”, the “polyreactivity (PSR sort gate)” value is “low polyreactivity”.

Turning to “QVQLVESGGGLVQAGGSLRISCAASGSIFDSKAMGWYRQAPGKERELVASFTSSGGSTYYADSVKGRFTISRDNAKNTVYLPRNSRKPEDTAVYYCAADSYKTIQDAYDYWGQGTQVTVSS”, the “polyreactivity (PSR sort gate)” value is given as “high polyreactivity”.

Consider “QVQLVESGGGLVQAGGSLRISCAASGSIFPEYAMGWYRQAPGKERELVAAITTSGGSTYYADSVKGRFTISRDNAKNTVYLQMNSLKPEDTAVYYCAVEYLVYLDYTYDYWGQGTQVTVSS”, for which the “polyreactivity (PSR sort gate)” value is recorded as “low polyreactivity”.

“QVQLVESGGGLVQAGGSLRISCAASGSIFPRYAMGWYRQAPGKERELVAAISWRGGRTYYADSVKGRFTISRDNAKNTVYLQMNSLKPEDTAVYYCAARWRQRKSVRYGQQGYDYWGQGTQVTVSS”: the “polyreactivity (PSR sort gate)” value is “high polyreactivity”.

On to “QVQLVESGGGLVQAGGSLRISCAASGSIFRPNAMGRYRQAPGKERELVAAINTSDDSTYYADSVKGRFTISRDNAKNTVYLQMNSLKQEDTAVYYCAAEYYAYPYGDYYDYWGQGTQVTVSS”, for which the “polyreactivity (PSR sort gate)” value is “low polyreactivity”.

As to “QVQLVESGGGLVQAGGSLRISCAASGSIFTFYAMGRYRQAPGKERELVATITWLGGSTYADSVKGRFTISRDNAKNTVYLQMNSLKPEDTAVYYCAKYLGRQHEKDLGGMNYWGQGTQVTVSS”, the “polyreactivity (PSR sort gate)” value is given as “high polyreactivity”.

As for “QVQLVESGGGLVQAGGSLRISCAASGSIFVHYAMGWYIPAPGKERELVAAITTSGGSTYYADSVKGRFTISRDNAKNTVYLQMNSLKPEDTAVYYCTARAVRYPFTGNYWGQGTQVTVSS”, the “polyreactivity (PSR sort gate)” value is “high polyreactivity”.

For “QVQLVESGGGLVQAGGSLRISCAASGSIFYRNVMGWYRQAPGKERELVAAISSSGGRTHYADSVKGRFTISRDNAKNTVYLQMNSLKPEDTAVYYCTALYAPQEYGRRFPNDYWGQGTQVTVSS”, the “polyreactivity (PSR sort gate)” value was “high polyreactivity”.
